Laboratory results as given in patent publication US20230372448A1, “THERAPEUTIC USE OF LONG-ACTING CONJUGATE OF TRIPLE AGONIST ACTING ON ALL OF GLUCAGON, GLP-1 AND GIP RECEPTORS AGAINST MULTIPLE SCLEROSIS” (HANMI PHARM. CO. ,LTD., priority 2020, published 2023).
Positions of bridges follow the written chain, without caps; N, C: chain ends. Non-standard residues stand in square brackets, D forms with d. No end group written: not given here. *: point of attachment. Acetyl(2-(4-imidazolyl)) = O=C(Cc1c[nH]cn1)*; Aib = CC(C)(N)C(=O)O

T1: human GIP receptor (human, UniProt P48546 22-466)
T1 sequence (looked up): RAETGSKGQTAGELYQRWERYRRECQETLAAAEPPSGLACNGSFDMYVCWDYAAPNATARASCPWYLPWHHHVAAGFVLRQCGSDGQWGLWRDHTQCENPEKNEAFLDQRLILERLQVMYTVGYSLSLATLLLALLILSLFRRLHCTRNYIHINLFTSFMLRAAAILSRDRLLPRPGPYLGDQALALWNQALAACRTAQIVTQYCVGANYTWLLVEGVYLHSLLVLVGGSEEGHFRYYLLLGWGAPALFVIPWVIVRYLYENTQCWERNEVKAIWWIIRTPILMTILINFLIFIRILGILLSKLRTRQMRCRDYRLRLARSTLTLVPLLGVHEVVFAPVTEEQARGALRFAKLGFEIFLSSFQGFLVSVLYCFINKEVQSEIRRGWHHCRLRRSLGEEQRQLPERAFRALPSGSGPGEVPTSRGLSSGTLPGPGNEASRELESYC


Legend:
Experiment in all cases: cell-based or functional assay
human GLP-1 receptor = human GLP-1 receptor (human, UniProt P43220 24-463)
human GCG receptor = human GCG receptor (human, UniProt P47871 26-477)
human GIP receptor = target: T1, human GIP receptor

Chain of human GCG receptor (P47871 26-477): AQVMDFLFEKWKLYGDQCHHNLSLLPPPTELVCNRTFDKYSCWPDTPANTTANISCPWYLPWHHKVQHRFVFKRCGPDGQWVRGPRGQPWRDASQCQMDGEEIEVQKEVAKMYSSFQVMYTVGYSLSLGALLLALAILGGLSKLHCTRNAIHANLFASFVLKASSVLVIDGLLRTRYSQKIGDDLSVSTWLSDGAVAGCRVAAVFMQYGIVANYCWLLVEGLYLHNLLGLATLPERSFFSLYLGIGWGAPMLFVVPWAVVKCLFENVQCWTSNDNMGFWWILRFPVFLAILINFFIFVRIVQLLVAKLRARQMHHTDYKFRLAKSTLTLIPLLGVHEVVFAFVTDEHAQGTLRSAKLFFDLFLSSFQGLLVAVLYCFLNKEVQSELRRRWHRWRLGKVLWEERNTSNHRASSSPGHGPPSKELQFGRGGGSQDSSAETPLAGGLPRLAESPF

Binder	In vitro activity (%) compared with native peptide: vs GLP-1 (human GLP-1 receptor) [%]	In vitro activity (%) compared with native peptide: vs Glucagon (human GCG receptor) [%]	In vitro activity (%) compared with native peptide: vs GIP (human GIP receptor) [%]
H[Aib]QGTFTSDVSSYLDGQAAKEFIAWLVKGC (not fully specified) [triple agonist of SEQ ID NO: 1]	3.2	< 0.1	< 0.1
H[Aib]QGTFTSDVSSYLLGQQQKEFIAWLVKGC (not fully specified) [triple agonist of SEQ ID NO: 4]	8.5	< 0.1	< 0.1
H[Aib]QGTFTSDYSKYLDEKRQKEFVNWLLAQKC (bridge 16-20; not fully specified) [triple agonist of SEQ ID NO: 34]	19.1	0.92	0.6
H[Aib]QGTFTSDYSIAMDEIHQKDFVNWLLNTKC (bridge 16-20; not fully specified) [triple agonist of SEQ ID NO: 35]	7.5	< 0.1	1.3
H[Aib]QGTFTSDYSKYLCEKRQKEFVQWLLNGGPSSGAPPPSG (bridge 16-20) [triple agonist of SEQ ID NO: 36]	37.4	0.39	0.2
H[Aib]QGTFTSDYSKYLDECRQKEFVQWLLNGGPSSGAPPPSG (bridge 16-20) [triple agonist of SEQ ID NO: 37]	236	6.21	2.2
{Acetyl(2-(4-imidazolyl))}-[Aib]QGTFTSDKSSYLDERAAQDFVQWLLDGGPSSGAPPPSS (not fully specified; also: ring from underlined residues, positions not shown) [triple agonist of SEQ ID NO: 38]	2.3		
H[Aib]QGTFTSDYSKYLDGQHAQCFVAWLLAGGGPSSGAPPPS (also: ring from underlined residues, positions not shown) [triple agonist of SEQ ID NO: 39]	13.9	0.53	< 0.1
H[Aib]QGTFTSDKSKYLDERACQDFVQWLLDGGPSSGAPPPS (not fully specified) [triple agonist of SEQ ID NO: 40]	75.2	< 0.1	< 0.1
H[Aib]QGTFTSDKSKYLDECAAQDFVQWLLDGGPSSGAPPPS (not fully specified) [triple agonist of SEQ ID NO: 41]	34.3	< 0.1	< 0.1
Y[Aib]QGTFTSDYSKYLDEKRAKEFVQWLLDHHPSSGQPPPSC (bridge 16-20; not fully specified) [triple agonist of SEQ ID NO: 42]	33.9	206	7.8
Y[Aib]QGTFTSDYSKYLDEKRAKEFVQWLLDHHCSSGQPPPS (bridge 16-20; not fully specified) [triple agonist of SEQ ID NO: 43]	12.6	88.4	3.7
HGQGTFTSDCSKQLDGQAAQEFVAWLLAGGPSSGAPPPS (ends and bridges not checked) [triple agonist of SEQ ID NO: 44]	1.3	< 0.1	< 0.1
H[Aib]QGTFTSDVSSYLLGQQQKEFIAWLVKGGGPSSGAPPPSC (not fully specified) [triple agonist of SEQ ID NO: 5]	42.1	< 0.1	< 0.1
HGQGTFTSDCSKYMDGQAAQDFVAWLLAGGPSSGAPPPS (ends and bridges not checked) [triple agonist of SEQ ID NO: 45]	6.6	< 0.1	< 0.1
HGQGTFTSDCSKYLDEQHAQEFVAWLLAGGPSSGAPPPS (ends and bridges not checked) [triple agonist of SEQ ID NO: 46]	1.4	< 0.1	< 0.1
HGQGTFTSDCSKYLDGQRAQEFVAWLLAGGPSSGAPPPS (ends and bridges not checked) [triple agonist of SEQ ID NO: 47]	2.4	< 0.1	< 0.1
HGQGTFTSDCSKYLDGQRAQDFVNWLLAGGPSSGAPPPS (ends and bridges not checked) [triple agonist of SEQ ID NO: 48]	1.5	< 0.1	< 0.1
{Acetyl(2-(4-imidazolyl))}-[Aib]QGTFTSDYSICMDEIHQKDFVNWLLNTK (bridge 15-19; not fully specified) [triple agonist of SEQ ID NO: 49]	29.8	< 0.1	3.3
H[Aib]QGTFTSDYSKYLDEKRAKEFVQWLLDHHPSSGQPPPSC (bridge 16-20; not fully specified) [triple agonist of SEQ ID NO: 50]	67.4	50.5	2.7
H[Aib]QGTFTSDYSKYLDEKRQKEFVQWLLNTC (bridge 16-20; not fully specified) [triple agonist of SEQ ID NO: 51]	14.4	2	0.1
H[Aib]QGTFTSDYSKYLDEKRQKEFVQWLLDTC (bridge 16-20; not fully specified) [triple agonist of SEQ ID NO: 52]	44.1	7.5	0.3
H[Aib]EGTFTSDYSIAMDEIHQKDFVDWLLAEC (bridge 16-20; not fully specified) [triple agonist of SEQ ID NO: 54]	30.6	1.4	0.1
H[Aib]QGTFTSDVSSYLDGQAAKEFVAWLLKGC (not fully specified) [triple agonist of SEQ ID NO: 6]	17	< 0.1	< 0.1
H[Aib]QGTFTSDYSKYLDEKRQKEFVNWLLAQC (bridge 16-20) [triple agonist of SEQ ID NO: 56]	57.9	4.9	0.8
H[Aib]QGTFTSDYSKYLDEKRQKEFVQWLLNTKC (bridge 16-20; not fully specified) [triple agonist of SEQ ID NO: 58]	39.1	2.6	0.2
{Acetyl(2-(4-imidazolyl))}-[Aib]QGTFTSDYSICMDEKHQKDFVNWLLNTK (bridge 15-19; not fully specified) [triple agonist of SEQ ID NO: 59]	40.3	< 0.1	4
{Acetyl(2-(4-imidazolyl))}-[Aib]QGTFTSDYSIAMDEKHCKDFVNWLLNTK (bridge 15-19; not fully specified) [triple agonist of SEQ ID NO: 60]	106	< 0.1	8.2
